Measured values reported in article PMC11827629.

How the values were obtained:
[1] = molecular target: T1, thrombin, N-terminally 2PCA-labeled (Cy5, biotin) (UniProt P00734;P00734 328-363;364-622); assay: single-molecule FRET (koff/kon); koff 0.3 +/- 0.1 s-1; kon 1.1 +/- 0.1 e8 M-1 s-1; smFRET: 1x PBS with 2.5 mM PCA, 0.155 U/ul PCD, 1 mM Trolox, 5 nM Cy3-aptamer, 23 +/- 1 C, pH not stated; QCM: PBS, flow 45 +/- 3 ul/min, thrombin 0.06-16.5 nM
human alpha-thrombin [2] = molecular target: T2, human alpha-thrombin (Homo sapiens, UniProt P00734;P00734 328-363;364-622); assay: QCM; linear 1.65-16.5 nM; no significant change below; release 6.3 +/- 0.6% per 5 min at 16.5 nM; smFRET: 1x PBS with 2.5 mM PCA, 0.155 U/ul PCD, 1 mM Trolox, 5 nM Cy3-aptamer, 23 +/- 1 C, pH not stated; QCM: PBS, flow 45 +/- 3 ul/min, thrombin 0.06-16.5 nM
[3] = molecular target: T1, thrombin, N-terminally 2PCA-labeled …; assay: single-molecule FRET (koff/kon); koff 0.7 +/- 0.1 s-1; kon 0.7 +/- 0.1 e8 M-1 s-1; main text gives error 0.8; smFRET: 1x PBS with 2.5 mM PCA, 0.155 U/ul PCD, 1 mM Trolox, 5 nM Cy3-aptamer, 23 +/- 1 C, pH not stated; QCM: PBS, flow 45 +/- 3 ul/min, thrombin 0.06-16.5 nM
[4] = molecular target: T1, thrombin, N-terminally 2PCA-labeled …; assay: single-molecule FRET (koff/kon); koff 0.1 +/- 0.1 s-1; kon 0.2 +/- 0.1 e8 M-1 s-1; main text gives error 0.7; smFRET: 1x PBS with 2.5 mM PCA, 0.155 U/ul PCD, 1 mM Trolox, 5 nM Cy3-aptamer, 23 +/- 1 C, pH not stated; QCM: PBS, flow 45 +/- 3 ul/min, thrombin 0.06-16.5 nM
human alpha-thrombin [5] = molecular target: T2, human alpha-thrombin; assay: QCM; about twice the sensitivity of RE31; response at 300 pM; release 3.1 +/- 1.05% per 5 min at 16.5 nM; smFRET: 1x PBS with 2.5 mM PCA, 0.155 U/ul PCD, 1 mM Trolox, 5 nM Cy3-aptamer, 23 +/- 1 C, pH not stated; QCM: PBS, flow 45 +/- 3 ul/min, thrombin 0.06-16.5 nM

TTTTTTTGTGACGTAGGTTGGTGTGGTTGGGGCGTCAC (structured_DNA) [RE31 single molecule exp.] gave a Kd [1] of 2.9 nM.

TTTTTTTGTGACGTAGGTTGGTGTGGTTGGGGCGTCAC (structured_DNA, 5' amino C6) [RE31 QCM exp.]: binds (human alpha-thrombin [2]).

TTTTTTTGGTTGGTGTGGTTGG (structured_DNA) [HD1 single molecule exp.] showed a Kd [3] of 9.2 nM.

Work on TTTTTTTCGCCTAGGTTGGGTAGGGTGGTGGCG (structured_DNA) [NU172 single molecule exp.] yielded a Kd [4] of 3.3 nM.

TTTTTTTCGCCTAGGTTGGGTAGGGTGGTGGCG (structured_DNA, 5' amino C6) [NU172 QCM exp.]: binds (human alpha-thrombin [5]).
